Data on 24 molecules can be found in article PMC12423313, “Protein-based tools for the detection and characterisation of Oropouche virus infection” (EMBO Molecular Medicine, 2025).

To fix the notation:
B1: biotinylated nanobody SpE8 (AviTag-His9) (VHH)
VHH: QVQLVESGGGFVRAGDSLRLSCAASGRAFSTYAMGWFRQAPGKEREFVAGITLGSRITQYADSVKGRFTISRDNARQTMYLQMNNLQPEDTADYYCAARGQGSPPLRNRWSADDYNYWGQGLQVTVSS
notes: VHH SpE8 from an immunised llama; also called bSpE8; OROV Gc Spike Nb E8 BAP H9; not shown: AviTag, C-terminal, kept
B2: nanobody SpE8, His8-tagged (VHH)
VHH: B1 VHH
notes: as the VHH of m21; also called OROV Gc Spike Nb E8 H8; not shown: His8, C-terminal, kept
B3: biotinylated nanobody NpF2 (AviTag-His9) (VHH)
VHH: QVQLVESGGGAVQAGGSLRLSCAASGRTFSSFPMGWFRQAPGKEREFIAAINWSGASKYYADSVKGRFAISRDNAKNTVYLQMNSLTPEDTAVYSCAAGSGRYGYTFSKEYTYWGQGTQVIVAS
notes: VHH NpF2 from an immunised llama; also called bNpF2; OROV Np Nb F2 BAP H9; not shown: AviTag, C-terminal, kept
B4: nanobody NpD2, His8-tagged (VHH)
VHH: QVQLVESGGGLAQPGGSLRLSCAASGFTLDYYSIGWFRQAPGKEREGVSCISSGGSTYYADSVKGRFAISSDNAKNTVYLQMNSLKPEDTAVYYCAADIMSCPGKYSAVADYWGQGTQVIVDS
notes: as the VHH of m11; also called OROV Np Nb D2 H8; not shown: His8, C-terminal, kept
B5: biotinylated nanobody NpD2 (AviTag-His9) (VHH)
VHH: B4 VHH
notes: VHH NpD2 from an immunised llama; also called bNpD2; OROV Np Nb D2 BAP H9; not shown: AviTag, C-terminal, kept
B6: nanobody NpG1, His8-tagged (VHH)
VHH: QVQLVESGGGLVQPGDSLRLSCAASGRTFTDYPMAWFRQAPGKEREFVTAINWSGGATYYADSVKGRFTISRDNTRNTVFLQMNSLKPEDTAVYYCAGGSGRLSYNMDKEYIYWGQGIQVTVSS
notes: as the VHH of m15; also called OROV Np Nb G1 H8; not shown: His8, C-terminal, kept
B7: biotinylated nanobody NpG1 (AviTag-His9) (VHH)
VHH: B6 VHH
notes: VHH NpG1 from an immunised llama; also called bNpG1; OROV Np Nb G1 BAP H9; not shown: AviTag, C-terminal, kept
B8: biotinylated nanobody SpA7 (AviTag-His9) (VHH)
VHH: QVQLVESGGGSVQAGGSLRLSCAASGRTFSAYVMGWFRQAPGKEREFVAAIRRSYGSTYYADSVKGRFTISTDNAKNTVTLQMNSLKPEDTAIYYCAAIRQGGGWGSSAVDYWGQGTQVTVAS
notes: VHH A7 against Gc spike from an immunised llama; also called OROV Gc Spike Nb A7 BAP H9; not shown: AviTag, C-terminal, kept
B9: biotinylated nanobody SpA9 (AviTag-His9) (VHH)
VHH: QVQLVESGGGLVQPGGSLTLSCAASGFTFSTLAMAWFRQAPGKERESVAVINRSGGIVNYADSVKGRFTITRDNAKNMVYLQMNSLKPEDTAVYYCAARTGYAYVRVSDYDSWGQGTQVTVSS
notes: VHH A9 against Gc spike from an immunised llama; also called OROV Gc Spike Nb A9 BAP H9; not shown: AviTag, C-terminal, kept
B10: nanobody SpB6, His8-tagged (VHH)
VHH: QVQLVESGGGLVQPGDSLRLSCAASGRTFSNYAMGWFRQAPGKEREKVAALSRSGTSTYYLDRVKGRFTISRDNTKNMVYLQMNSLEPEDTAVYYCAADPLFQNAAYHYSGQGTQVTVST
notes: as the VHH of m18; also called OROV Gc Spike Nb B6 H8; not shown: His8, C-terminal, kept
B11: biotinylated nanobody SpB6 (AviTag-His9) (VHH)
VHH: B10 VHH
notes: VHH SpB6 from an immunised llama; also called bSpB6; OROV Gc Spike Nb B6 BAP H9; not shown: AviTag, C-terminal, kept
B12: nanobody NpE3, His8-tagged (VHH)
VHH: QVQLVESGGGLVRPGGSLRLSCAASGFTFSNAYMTWIRQAPGKDLEWVSSIYYGDMTSYATSVKGRFTISRDNAKNTLYLQMNNLKPEDSAIYYCTKGDERGQGTQVTVSS
notes: as the VHH of m13; also called OROV Np Nb E3 H8; not shown: His8, C-terminal, kept
B13: biotinylated nanobody NpA2 (AviTag-His9) (VHH)
VHH: QVQLVESGGGLVQPGGSVRLSCAASGGIFSFNAMAWYRQAPGKQRDIVALIANDGNTNYADSVKGRFTISRDNAKNTVYLQMNSLQPEDTAVYYCSALRRGAQDWGQGTQVTVSS
notes: VHH NpA2 from an immunised llama; also called bNpA2; OROV Np Nb A2 BAP H9; not shown: AviTag, C-terminal, kept
B14: nanobody NpA2, His8-tagged (VHH)
VHH: B13 VHH
notes: as the VHH of m10; also called OROV Np Nb A2 H8; not shown: His8, C-terminal, kept
B15: nanobody SpC7, His8-tagged (VHH)
VHH: QVQLVESGGGLVQAGGSLRLSCAASGRTFSPNAMGWFRQAPGKEREFVSAISWSGGSTTYADSVKGRFTISRDNAKNTVSLQMNSLKPEDTAVYYCAADLEGMVVADRIWGQGTQVTVSS
notes: as the VHH of m20; also called OROV Gc Spike Nb C7 H8; not shown: His8, C-terminal, kept
B16: OROV nucleoprotein (N), recombinant, strain BeAn19991 (natural protein, Oropouche virus strain BeAn19991)
chain: MSEFIFNDVPQRTTSTFDPEAAYVAFEARYGQVLNAGVVRVFFLNQKKAKDVLRKTSRPMVDLTFGGVQFAMVNNHFPQFQSNPVPDNGLTLHRLSGYLARWAFTQMRSPIKQAEFRATVVVPLAEVKGCTWNDGDAMYLGFAAGAEMFLQTFTFFPLVIEMHRVLKDGMDVNFMKKVLRQRYGQKTAEQWMREEIVAVRAAFEAVGTLAWARTGFSPAARDFLRQFGIDI
B17: OROV nucleoprotein (N) in serum of patients with acute OROV infection (natural protein)
chain: B16 chain
notes: N protein of the Oropouche virus infecting the patients; also called OROV N protein
B18: OROV nucleoprotein (N) of the 2023-4 epidemic isolate AM0088, native (natural protein)
chain: B16 chain
notes: also called OROV AM0088 N
B19: OROV nucleoprotein (N) of strain TRVL, native, in virus stock (natural protein)
chain: B16 chain
notes: N protein of Oropouche virus strain TRVL (Anderson et al, 1961); also called OROV TRVL
B20: OROV nucleoprotein (N) of strain BeAn19991, native, in virus stocks and infected cells (natural protein, Oropouche virus strain BeAn19991)
chain: B16 chain
notes: N protein of Oropouche virus strain BeAn19991, GenBank AJE24680.1, as made by the virus; also called OROV BeAn19991
B21: nanobody NpE2, His8-tagged (VHH)
VHH: QVQLVESGGGLVQAGDSLRLSCVASGFTPNPAVSWVRQAPGKDLEWVSSIYHGDITSYATSVKGRFTISRDNAKNTVYLQMNSLKPEDSAIYYCTKGDSRGQGTQVTVSS
notes: as the VHH of m12; also called OROV Np Nb E2 H8; not shown: His8, C-terminal, kept
B22: biotinylated nanobody NpE2 (AviTag-His9) (VHH)
VHH: B21 VHH
notes: VHH NpE2 from an immunised llama; also called bNpE2; OROV Np Nb E2 BAP H9; not shown: AviTag, C-terminal, kept
B23: biotinylated nanobody SpC6 (AviTag-His9) (VHH)
VHH: QVQLVESGGGSVQAGGSLRLSCAASGRTFSRYAMGWLRQAPGKEREFVAAITWSGGNTYYADSVKGRFTITRDDAKNTVYLQINNPKPEDTAVYYCAAGTQTGRIRDKGPSYWGQGTQVTVSS
notes: VHH SpC6 from an immunised llama; also called bSpC6; OROV Gc Spike Nb C6 BAP H9; not shown: AviTag, C-terminal, kept
B24: nanobody SpC6, His8-tagged (VHH)
VHH: B23 VHH
notes: as the VHH of m19; also called OROV Gc Spike Nb C6 H8; not shown: His8, C-terminal, kept

The target in test [1] is T1, OROV Gc spike region (residues 482-894 of the M polyprotein), recombinant, strain BeAn19991 (Oropouche virus strain BeAn19991, UniProt A0A0B5CLT0).
T1 construct: Gc spike region (head and stalk domains) of the M polyprotein of Oropouche virus strain BeAn19991, GenBank AJE24679.1, residues 482-894; also called Gc spike domain
The test is described as follows: ELISA; […], biotinylated nanobody 2 µg/mL, […], room temperature. Conditions: both partners purified.

For test [2], the target named is T1, OROV Gc spike region (residues 482-894 …). The test is described as follows: ELISA. To be noted: both partners purified.
The target in test [3] is B16. Briefly: BLI; streptavidin biosensors loaded with biotinylated nanobodies, 1 µM OROV N with or without 25 µM competitor nanobody, 300 s association, 30 °C, PBS-T, Octet Red. Conditions: both partners purified.
Test [4] concerns the target B16. The test is described as follows: ELISA. Conditions: both partners purified.
Test [5] deals with B16. The test is described as follows: ELISA; […], biotinylated nanobody 2 µg/mL, […], room temperature. To be noted: both partners purified.
Test [6] has as its target T2, OROV glycoprotein Gc of strain TRVL, native, in virus stock (Oropouche virus strain TRVL (stand-in: …, UniProt A0A0B5CLT0, strain)).
T2 construct: also called Gc spike; OROV TRVL
Briefly: ELISA. To be noted: one partner purified.

Test [7] concerns the target T3, OROV glycoprotein Gc of strain BeAn19991, native, in virus stocks and infected cells (Oropouche virus strain BeAn19991, UniProt A0A0B5CLT0).
T3 construct: On virus particles Gc stands with Gn; also called Gc spike; OROV BeAn19991
The test is described as follows: ELISA. To be noted: one partner purified.

Test [8] concerns the target T4, biotinylated nanobody-Fc fusion bFcNpD2 (C-terminal AviTag) (llama).
T4 construct: as the VHH of m11; also called OROV FcNpD2 BAP; not shown: Fc (human IgG1 hinge and Fc domains 2 and 3), C-terminal, kept; AviTag, C-terminal, kept
The test is described as follows: ELISA.

In test [9] the target is T5, nanobody-Fc fusion FcNpD2, HRP-conjugated (llama).
T5 construct: as the VHH of m11; also called OROV FcNpD2; not shown: Fc (human IgG1 hinge and Fc domains 2 and 3), C-terminal, kept
Briefly: ELISA.

For B1, in test [1], the binding result is “binds”.
On to B2, for which the binding result in test [2] is reported as “binds”.
In the case of B3, the binding result in test [3] was “binds”.
Regarding B4, the binding result in test [4] is listed as “binds”.
On to B5, for which, in [5], the binding result is reported as “binds”.
Regarding B6, the binding result in test [4] is “binds”.
In the case of B7, in test [3], the binding result is “binds”.
B8: the binding result in test [1] is “binds”.
Same read-out and setting: the value for B9 was “binds”.
Turning to B10, the binding result in test [6], in test [2] and in [7] was “binds” in each case.
Regarding B11, the binding result in test [1] was “binds”.
B12: the binding result in [4] is listed as “binds”.
On to B13, for which the binding result in [5] is “binds”.
On to B14, for which the binding result in [4] was “binds”.
For B15, in test [2], the binding result is “binds”.
B16: the binding result in test [8] (both partners purified) and in [9] (both partners purified) was “binds” each time.
For B17, the binding result in test [8] (one partner purified) and in [9] (one partner purified) was “binds” each time.
On to B18, for which the binding result in test [8] (one partner purified) and in test [9] (one partner purified) was “binds” throughout.
For the molecule B19, the binding result in test [8] (one partner purified) and in test [9] (one partner purified) was “binds” each time.
Regarding B20, the binding result in test [8] (one partner purified) and in test [9] (one partner purified) was “binds” each time.
With B21, in [4], the binding result is reported as “binds”.
For B22, the binding result in test [3] is on record as “binds”.
Regarding B23, the binding result in test [1] is listed as “binds”.
In the case of B24, in test [2], the binding result is “binds”.
